Test results as given in patent publication US20090068637A1.
Substitutions are numbered along the chain they refer to.

Key:
Test in all cases: cell-based or functional assay
[1] = target: non-H5 viruses (14 strains; H1~H13, Chicken NDV)
[2] = target: H5 virus strains (thirty-four strains of H5N1 viruses)
[3] = target: HA of H5N1 virus strain GD1 (avian influenza virus H5N1)
[4] = target: HA of H5N1 virus strain GD2 (avian influenza virus H5N1)
[5] = target: HA of H5N1 virus strain GD3 (avian influenza virus H5N1)
[6] = target: HA of H5N1 virus strain HN1 (avian influenza virus H5N1)
[7] = target: HA of H5N1 virus strain HN2 (avian influenza virus H5N1)
[8] = target: HA of H5N1 virus strain IDN1.1 (avian influenza virus H5N1)
[9] = target: HA of H5N1 virus strain IDN2 (avian influenza virus H5N1)
[10] = target: HA of H5N1 virus strain IDN3 (avian influenza virus H5N1)
[11] = target: HA of H5N1 virus strain IDN4 (avian influenza virus H5N1)
[12] = target: HA of H5N1 virus strain IDN5 (avian influenza virus H5N1)
[13] = target: HA of H5N1 virus strain MB1 (avian influenza virus H5N1)
[14] = target: HA of H5N1 virus strain MB2 (avian influenza virus H5N1)
[15] = target: HA of H5N1 virus strain MIX1 (avian influenza virus H5N1)
[16] = target: HA of H5N1 virus strain MIX2 (avian influenza virus H5N1)
[17] = target: HA of H5N1 virus strain MIX3 (avian influenza virus H5N1)
[18] = target: HA of H5N1 virus strain VNM2.1 (avian influenza virus H5N1)
[19] = target: HA of H5N1 virus strain VTM1.1 (avian influenza virus H5N1)
[20] = target: HA of H5N1 virus strain VTM2 (avian influenza virus H5N1)
[21] = target: HA of H5N1 virus strain VTM3 (avian influenza virus H5N1)
[22] = target: HA of H5N1 virus strain VTM4 (avian influenza virus H5N1)
[23] = target: HA of H5N1 virus strain YN1 (avian influenza virus H5N1)
[24] = target: HA of H5N1 virus strain A1 (avian influenza virus H5N1)
[25] = target: HA of H5N1 virus strain A2 (avian influenza virus H5N1)
[26] = target: HA of H5N1 virus strain A3 (avian influenza virus H5N1)
[27] = target: HA of H5N1 virus strain A5 (avian influenza virus H5N1)
[28] = target: HA of H5N1 virus strain A6 (avian influenza virus H5N1)
[29] = target: HA of H5N1 virus strain A7 (avian influenza virus H5N1)
[30] = target: HA of H5N1 virus strain A8 (avian influenza virus H5N1)
[31] = target: HA of H5N1 virus strain B1 (avian influenza virus H5N1)
[32] = target: HA of H5N1 virus strain B2 (avian influenza virus H5N1)
[33] = target: HA of H5N1 virus strain B3 (avian influenza virus H5N1)
[34] = target: HA of H5N1 virus strain B4 (avian influenza virus H5N1)
[35] = target: HA of H5N1 virus strain B5 (avian influenza virus H5N1)
[36] = target: HA of H5N1 virus strain B6 (avian influenza virus H5N1)
[37] = target: HA of H5N1 virus strain B7 (avian influenza virus H5N1)
[38] = target: HA of H5N1 virus strain B8 (avian influenza virus H5N1)
[39] = target: HA of H5N1 virus strain C2 (avian influenza virus H5N1)
[40] = target: HA of H5N1 virus strain C3 (avian influenza virus H5N1)
[41] = target: HA of H5N1 virus strain D1 (avian influenza virus H5N1)
[42] = target: HA of H5N1 virus strain D2 (avian influenza virus H5N1)
[43] = target: HA of H5N1 virus strain E1 (avian influenza virus H5N1)
[44] = target: HA of H5N1 virus strain E2 (avian influenza virus H5N1)
[45] = target: HA of H5N1 virus strain F2 (avian influenza virus H5N1)
[46] = target: HA of H5N1 virus strain F3 (avian influenza virus H5N1)
[47] = target: HA of H5N1 virus strain G1 (avian influenza virus H5N1)
[48] = target: HA of H5N1 virus strain H1 (avian influenza virus H5N1)
[49] = target: HA of H5N1 virus strain H2 (avian influenza virus H5N1)

B1: monoclonal antibody 8H5 (antibody, V domains shown)
VH: QVQLQQSGAELMKPGASVKISCKATGYTFSNYWIEWIKQRPGHGLEWIGEILPGSDRTNYNGKFKGKATFTADTSSNTAHMQLSSLTSEDSAVYYCANRYDGYYFGLDYWGQGTSVAVSS
VL: EIVLTQSPAIMSASLGEKVTMSCRASSSVNFVYWYQQRSDASPKLLIYYSSNLAPGVPPRFSGSGSGNSYSLTISGLEGEDAATYYCQHFTSSPYTFGGGTNLEIKR
[1]
  HI assay: positive number/total virus number (of 14 strains): 0

B2: monoclonal antibody 4D1 (antibody, V domains shown)
VH: QVQLQQPGAELVKPGASVNLSCKASGYTFTSYWMHWVKQRPGQGLEWIGEIDPSDSFTTYNQNFKDRATLTVDKSSSTAYMQLRSLTSEDSAVYYCARGGPGDFRYAMDYWGQGTSVTVSS
VL: DILMTQSPSSMSVSLGDTVSITCHASQGISSNIGWLQQKPGKSFKGLIYHGTNLEDGVPSRFSGSGSGADYSLTISSLESEDFADYYCVQYVQFPYTFGGGTKLEIKR
[2]
  HI assay: positive number/total virus number (of 34 strains): 34
[3]
  HI titer: 12800 titer
  Neutralization titer: 12800 titer
[4]
  HI titer: 800 titer
  Neutralization titer: 12800 titer
[5]
  HI titer: 12800 titer
  Neutralization titer: 12800 titer
[6]
  HI titer: 12800 titer
  Neutralization titer: 12800 titer
[7]
  HI titer: 3200 titer
  Neutralization titer: 12800 titer
[8]
  HI titer: 12800 titer
  Neutralization titer: 12800 titer
[9]
  HI titer: 800 titer
  Neutralization titer: 12800 titer
[10]
  HI titer: 6400 titer
  Neutralization titer: 12800 titer
[11]
  HI titer: 12800 titer
  Neutralization titer: 12800 titer
[12]
  HI titer: 12800 titer
  Neutralization titer: 12800 titer
[13]
  HI titer: 3200 titer
  Neutralization titer: 6400 titer
[14]
  HI titer: 6400 titer
  Neutralization titer: 12800 titer
[15]
  HI titer: 12800 titer
  Neutralization titer: 12800 titer
[16]
  HI titer: 12800 titer
  Neutralization titer: 12800 titer
[17]
  HI titer: 12800 titer
  Neutralization titer: 12800 titer
[18]
  HI titer: 400 titer
  Neutralization titer: 1600 titer
[19]
  HI titer: 3200 titer
  Neutralization titer: 1600 titer
[20]
  HI titer: 3200 titer
  Neutralization titer: 3200 titer
[21]
  HI titer: 12800 titer
  Neutralization titer: 12800 titer
[22]
  HI titer: 400 titer
  Neutralization titer: 1600 titer
[23]
  HI titer: 6400 titer
  Neutralization titer: 12800 titer
[1]
  HI assay: positive number/total virus number (of 14 strains): 0

B3: monoclonal antibody 10F7 (antibody, V domains shown)
VH: B2 VH with N19K, F57Y, T59N, N63K, D66G, R67K, R84S, P101T, R105H
VL: B2 VL
[2]
  HI assay: positive number/total virus number (of 34 strains): 34
[3]
  HI titer: 6400 titer
  Neutralization titer: 12800 titer
[4]
  HI titer: 12800 titer
  Neutralization titer: 12800 titer
[5]
  HI titer: 12800 titer
  Neutralization titer: 12800 titer
[6]
  HI titer: 12800 titer
  Neutralization titer: 12800 titer
[7]
  HI titer: 1600 titer
  Neutralization titer: 12800 titer
[8]
  HI titer: 12800 titer
  Neutralization titer: 12800 titer
[9]
  HI titer: 1600 titer
  Neutralization titer: 12800 titer
[10]
  HI titer: 1600 titer
  Neutralization titer: 12800 titer
[11]
  HI titer: 12800 titer
  Neutralization titer: 12800 titer
[12]
  HI titer: 6400 titer
  Neutralization titer: 12800 titer
[13]
  HI titer: 6400 titer
  Neutralization titer: 12800 titer
[14]
  HI titer: 12800 titer
  Neutralization titer: 12800 titer
[15]
  HI titer: 12800 titer
  Neutralization titer: 12800 titer
[16]
  HI titer: 12800 titer
  Neutralization titer: 12800 titer
[17]
  HI titer: 12800 titer
  Neutralization titer: 12800 titer
[18]
  HI titer: 3200 titer
  Neutralization titer: 200 titer
[19]
  HI titer: 3200 titer
  Neutralization titer: 3200 titer
[20]
  HI titer: 1600 titer
  Neutralization titer: 3200 titer
[21]
  HI titer: 12800 titer
  Neutralization titer: 12800 titer
[22]
  HI titer: 400 titer
  Neutralization titer: 200 titer
[23]
  HI titer: 3200 titer
  Neutralization titer: 12800 titer
[1]
  HI assay: positive number/total virus number (of 14 strains): 0

B4: monoclonal antibody 3C8 (antibody, V domains shown)
VH: QIQLVQSGPELKKPGETVKISCKASGYSFTNYGMNWVKQAPGKGLKWMGWINTYTGEPAYADDFKGRFAFSLETSASTAYLQINNLKNEDTATYFCARWNRDAMDYWGQGTSVTVSS
VL: DIVLTQSPASLAVSLGQRATISCRASESVDSSDNSLMHWYQQKPGQPPKLLIYRASNLESGIPARFSGSGSRTDFTLTINPVEADDVATYYCQQSIGDPPYTFGGGTKLEIKR
[2]
  HI assay: positive number/total virus number (of 34 strains): 32
[3]
  HI titer: 6400 titer
  Neutralization titer: 12800 titer
[4]
  HI titer: 12800 titer
  Neutralization titer: 12800 titer
[5]
  HI titer: 3200 titer
  Neutralization titer: 200 titer
[6]
  HI titer: 3200 titer
  Neutralization titer: 12800 titer
[7]
  HI titer: 800 titer
  Neutralization titer: 6400 titer
[8]
  HI titer: 3200 titer
  Neutralization titer: 6400 titer
[9]
  HI titer: 400 titer
  Neutralization titer: 12800 titer
[10]
  HI titer: < 100 titer
[11]
  HI titer: 6400 titer
  Neutralization titer: 12800 titer
[12]
  HI titer: 6400 titer
  Neutralization titer: 6400 titer
[13]
  HI titer: 400 titer
[14]
  HI titer: 3200 titer
  Neutralization titer: 12800 titer
[15]
  HI titer: 1600 titer
  Neutralization titer: 100 titer
[16]
  HI titer: 800 titer
  Neutralization titer: < 100 titer
[17]
  HI titer: 400 titer
  Neutralization titer: 200 titer
[18]
  HI titer: < 100 titer
  Neutralization titer: < 100 titer
[19]
  HI titer: 3200 titer
  Neutralization titer: 1600 titer
[20]
  HI titer: 1600 titer
  Neutralization titer: 6400 titer
[21]
  HI titer: 6400 titer
  Neutralization titer: 12800 titer
[22]
  HI titer: 800 titer
  Neutralization titer: 12800 titer
[23]
  HI titer: 1600 titer
[1]
  HI assay: positive number/total virus number (of 14 strains): 0

B5: 4D1 single chain antibody (scFv)
scFv: QVQLQQPGAELVKPGASVNLSCKASGYTFTSYWMHWVKQRPGQGLEWIGEIDPSDSFTTYNQNFKDRATLTVDKSSSTAYMQLRSLTSEDSAVYYCARGGPGDFRYAMDYWGQGTSVTVSSGGGGSDILMTQSPSSMSVSLGDTVSITCHASQGISSNIGWLQQKPGKSFKGLIYHGTNLEDGVPSRFSGSGSGADYSLTISSLESEDFADYYCVQYVQFPYTFGGGTKLEIKRA
[24]
  HI titer (n) (n (dilution 2^n)): > 8
[25]
  HI titer (n) (n (dilution 2^n)): > 8
[26]
  HI titer (n) (n (dilution 2^n)): > 8
[27]
  HI titer (n) (n (dilution 2^n)): > 8
[28]
  HI titer (n) (n (dilution 2^n)): 7
[29]
  HI titer (n) (n (dilution 2^n)): 6
[30]
  HI titer (n) (n (dilution 2^n)): > 8
[31]
  HI titer (n) (n (dilution 2^n)): > 8
[32]
  HI titer (n) (n (dilution 2^n)): 0
[33]
  HI titer (n) (n (dilution 2^n)): > 8
[34]
  HI titer (n) (n (dilution 2^n)): > 8
[35]
  HI titer (n) (n (dilution 2^n)): 0
[36]
  HI titer (n) (n (dilution 2^n)): > 8
[37]
  HI titer (n) (n (dilution 2^n)): > 8
[38]
  HI titer (n) (n (dilution 2^n)): > 8
[39]
  HI titer (n) (n (dilution 2^n)): > 8
[40]
  HI titer (n) (n (dilution 2^n)): > 8
[41]
  HI titer (n) (n (dilution 2^n)): > 8
[42]
  HI titer (n) (n (dilution 2^n)): 7.5
[43]
  HI titer (n) (n (dilution 2^n)): 1
[44]
  HI titer (n) (n (dilution 2^n)): 1
[45]
  HI titer (n) (n (dilution 2^n)): 5
[46]
  HI titer (n) (n (dilution 2^n)): 3
[47]
  HI titer (n) (n (dilution 2^n)): 3.5
[48]
  HI titer (n) (n (dilution 2^n)): 6
[49]
  HI titer (n) (n (dilution 2^n)): 4
